According to publication PMC9482650, “Quantitative fragmentomics allow affinity mapping of interactomes” (Nature Communications, 2022):

T1: DVL3, Q92997
T1 sequence (Q92997 244-331, limits assumed, looked up): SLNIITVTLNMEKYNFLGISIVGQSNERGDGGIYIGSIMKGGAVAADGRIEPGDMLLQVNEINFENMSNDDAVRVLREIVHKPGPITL

T2: SYNJ2BP, P57105
T2 sequence (P57105 8-110, limits assumed, looked up): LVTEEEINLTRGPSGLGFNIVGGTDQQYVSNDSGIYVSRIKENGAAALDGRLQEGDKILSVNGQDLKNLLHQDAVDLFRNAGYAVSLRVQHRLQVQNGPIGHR

T3: DFNB31_3, Q9P202
T3 sequence (Q9P202 811-907, limits assumed, looked up): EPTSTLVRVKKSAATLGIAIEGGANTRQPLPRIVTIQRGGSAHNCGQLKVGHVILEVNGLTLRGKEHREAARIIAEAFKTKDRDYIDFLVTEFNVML

T4: APBA2_1, Q99767
T4 sequence (Q99767 563-664, limits assumed, looked up): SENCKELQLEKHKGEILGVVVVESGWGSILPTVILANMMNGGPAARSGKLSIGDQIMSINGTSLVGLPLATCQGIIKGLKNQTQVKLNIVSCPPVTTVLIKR

T5: NHERF3_4, Q5T2W1
T5 sequence (Q5T2W1 373-468, limits assumed, looked up): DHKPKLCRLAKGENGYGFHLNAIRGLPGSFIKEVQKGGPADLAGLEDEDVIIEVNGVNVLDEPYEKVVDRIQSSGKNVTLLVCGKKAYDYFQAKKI

T6: APBA3_1, O96018
T6 sequence (O96018 389-490, limits assumed, looked up): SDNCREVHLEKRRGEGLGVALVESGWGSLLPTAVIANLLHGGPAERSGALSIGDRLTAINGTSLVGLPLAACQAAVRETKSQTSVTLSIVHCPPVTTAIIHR

T7: HTRA4, P83105
T7 sequence (P83105 378-476, limits assumed, looked up): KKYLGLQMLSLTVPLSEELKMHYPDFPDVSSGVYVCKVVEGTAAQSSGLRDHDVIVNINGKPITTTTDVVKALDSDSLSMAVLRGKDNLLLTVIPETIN

T8: SIPA1L2, Q9P2F8
T8 sequence (Q9P2F8 945-1036, limits assumed, looked up): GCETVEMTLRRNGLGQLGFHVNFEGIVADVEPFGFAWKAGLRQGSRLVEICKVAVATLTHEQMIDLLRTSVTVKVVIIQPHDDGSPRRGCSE

T9: MPDZ_10, O75970
T9 sequence (O75970 1624-1722, limits assumed, looked up): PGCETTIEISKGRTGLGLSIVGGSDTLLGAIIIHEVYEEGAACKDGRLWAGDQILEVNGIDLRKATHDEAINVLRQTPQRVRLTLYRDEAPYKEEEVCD

T10: PDZD7_3, Q9H5P4
T10 sequence (Q9H5P4 857-944, limits assumed, looked up): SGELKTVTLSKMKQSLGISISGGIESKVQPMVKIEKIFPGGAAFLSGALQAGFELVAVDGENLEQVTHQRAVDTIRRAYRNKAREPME

T11: APBA1_1, Q02410
T11 sequence (Q02410 651-752, limits assumed, looked up): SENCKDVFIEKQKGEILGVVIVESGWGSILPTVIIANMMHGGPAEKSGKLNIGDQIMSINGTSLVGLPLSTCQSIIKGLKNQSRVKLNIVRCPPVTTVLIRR

T12: APBA2_2, Q99767
T12 sequence (Q99767 654-744, limits assumed, looked up): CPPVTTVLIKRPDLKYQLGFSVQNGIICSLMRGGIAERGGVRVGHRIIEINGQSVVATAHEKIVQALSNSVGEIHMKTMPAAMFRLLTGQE

T13: LIN7B, Q9HAP6
T13 sequence (Q9HAP6 88-185, limits assumed, looked up): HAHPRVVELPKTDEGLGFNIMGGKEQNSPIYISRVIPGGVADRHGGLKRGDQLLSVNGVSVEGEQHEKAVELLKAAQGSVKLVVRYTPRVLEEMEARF


Experiments:
Experiment in all cases: holdup assay
Design in all cases: key: below the threshold = too weak to quantify, mostly under pKd 3.1 to 4
Settings in all cases: plain residues with an end cap or a label only (N-terminal biotin on a linker: ado-ado)
DVL3, Q92997 = target: T1, DVL3, Q92997
PDLIM1, O00151 = target: PDLIM1, O00151
Inadl_2, Q8NI35 = target: Inadl_2, Q8NI35
GRASP, Q7Z6J2 = target: GRASP, Q7Z6J2
GRIP2_7, Q9C0E4 = target: GRIP2_7, Q9C0E4
SYNJ2BP, P57105 = target: T2, SYNJ2BP, P57105
MAST2, Q6P0Q8 = target: MAST2, Q6P0Q8
SNX27, Q96L92 = target: SNX27, Q96L92
DFNB31_3, Q9P202 = target: T3, DFNB31_3, Q9P202
APBA2_1, Q99767 = target: T4, APBA2_1, Q99767
MAGI2_4, Q86UL8 = target: MAGI2_4, Q86UL8
NHERF3_4, Q5T2W1 = target: T5, NHERF3_4, Q5T2W1
APBA3_1, O96018 = target: T6, APBA3_1, O96018
HTRA4, P83105 = target: T7, HTRA4, P83105
GRIP2_3, Q9C0E4 = target: GRIP2_3, Q9C0E4
SIPA1L2, Q9P2F8 = target: T8, SIPA1L2, Q9P2F8
MPDZ_10, O75970 = target: T9, MPDZ_10, O75970
MAGI3_2, Q5TCQ9 = target: MAGI3_2, Q5TCQ9
PDZD7_3, Q9H5P4 = target: T10, PDZD7_3, Q9H5P4
APBA1_1, Q02410 = target: T11, APBA1_1, Q02410
TJP2_1, Q9UDY2 = target: TJP2_1, Q9UDY2
APBA2_2, Q99767 = target: T12, APBA2_2, Q99767
FRMPD4, Q14CM0 = target: FRMPD4, Q14CM0
LIN7B, Q9HAP6 = target: T13, LIN7B, Q9HAP6

Chain of FRMPD4, Q14CM0 (Q14CM0 67-160): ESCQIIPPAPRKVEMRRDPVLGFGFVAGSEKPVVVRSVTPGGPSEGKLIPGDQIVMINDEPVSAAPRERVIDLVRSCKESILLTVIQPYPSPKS
Chain of Inadl_2, Q8NI35 (Q8NI35 238-335): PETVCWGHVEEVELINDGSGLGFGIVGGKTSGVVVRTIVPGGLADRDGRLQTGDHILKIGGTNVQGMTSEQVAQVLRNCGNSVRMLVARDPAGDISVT
Chain of PDLIM1, O00151 (O00151 1-87): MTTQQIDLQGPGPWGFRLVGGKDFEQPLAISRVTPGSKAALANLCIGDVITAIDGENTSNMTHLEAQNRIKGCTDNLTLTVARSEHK
Chain of GRASP, Q7Z6J2 (Q7Z6J2 96-193): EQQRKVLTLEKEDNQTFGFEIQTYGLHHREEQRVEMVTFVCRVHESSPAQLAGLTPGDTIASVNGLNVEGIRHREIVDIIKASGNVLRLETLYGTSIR
Chain of MAST2, Q6P0Q8 (Q6P0Q8 1099-1202): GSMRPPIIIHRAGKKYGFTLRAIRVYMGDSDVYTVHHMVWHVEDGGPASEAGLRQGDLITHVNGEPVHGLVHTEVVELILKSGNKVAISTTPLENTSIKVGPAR
Chain of GRIP2_3, Q9C0E4 (Q9C0E4 238-339): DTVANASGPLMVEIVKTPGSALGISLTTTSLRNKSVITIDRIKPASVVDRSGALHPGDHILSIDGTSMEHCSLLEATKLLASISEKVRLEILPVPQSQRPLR
Chain of MAGI3_2, Q5TCQ9 (Q5TCQ9 398-503): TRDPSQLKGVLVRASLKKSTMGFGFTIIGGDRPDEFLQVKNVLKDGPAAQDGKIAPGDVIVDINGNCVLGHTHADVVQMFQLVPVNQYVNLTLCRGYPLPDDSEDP
Chain of GRIP2_7, Q9C0E4 (Q9C0E4 934-1023): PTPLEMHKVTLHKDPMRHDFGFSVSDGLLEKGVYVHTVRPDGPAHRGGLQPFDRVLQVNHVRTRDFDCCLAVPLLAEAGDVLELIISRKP
Chain of TJP2_1, Q9UDY2 (Q9UDY2 24-128): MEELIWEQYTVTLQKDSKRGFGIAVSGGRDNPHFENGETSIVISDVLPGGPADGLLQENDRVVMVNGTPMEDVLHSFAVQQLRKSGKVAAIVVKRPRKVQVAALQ
Chain of MAGI2_4, Q86UL8 (Q86UL8 772-865): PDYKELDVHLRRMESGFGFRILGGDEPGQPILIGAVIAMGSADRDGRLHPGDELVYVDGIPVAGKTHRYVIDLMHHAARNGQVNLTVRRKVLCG

Row | pKd (DVL3, Q92997) | pKd (PDLIM1, O00151) | pKd (Inadl_2, Q8NI35) | pKd (GRASP, Q7Z6J2) | pKd (GRIP2_7, Q9C0E4) | pKd (SYNJ2BP, P57105) | pKd (MAST2, Q6P0Q8) | pKd (SNX27, Q96L92) | pKd (DFNB31_3, Q9P202) | pKd (APBA2_1, Q99767) | pKd (MAGI2_4, Q86UL8) | pKd (NHERF3_4, Q5T2W1) | pKd (APBA3_1, O96018) | pKd (HTRA4, P83105) | pKd (GRIP2_3, Q9C0E4) | pKd (SIPA1L2, Q9P2F8) | pKd (MPDZ_10, O75970) | pKd (MAGI3_2, Q5TCQ9) | pKd (PDZD7_3, Q9H5P4) | pKd (APBA1_1, Q02410) | Binder | also measured
1 | below the threshold | below the threshold | 3.57 | 3.53 | below the threshold | below the threshold | 4.08 | below the threshold | 4.12 | below the threshold | below the threshold | below the threshold | below the threshold | 4.97 | below the threshold | below the threshold | below the threshold | below the threshold | below the threshold | below the threshold | DDEDRLVIEI [ZNF831, Q5JPB2] | pKd (TJP2_1, Q9UDY2): below the threshold; pKd (APBA2_2, Q99767): below the threshold; pKd (FRMPD4, Q14CM0): below the threshold; pKd (LIN7B, Q9HAP6): 3.56
2 | below the threshold | 3.65 | below the threshold | 4.21 | below the threshold | 5.1 | 5.64 | 5.55 | below the threshold | below the threshold | below the threshold | 3.95 | below the threshold | below the threshold | below the threshold | below the threshold | below the threshold | 4.06 | 4.46 | below the threshold | RHGSCVETSL [TMEM151B, Q8IW70] | pKd (TJP2_1, Q9UDY2): below the threshold; pKd (APBA2_2, Q99767): below the threshold; pKd (FRMPD4, Q14CM0): 4.51; pKd (LIN7B, Q9HAP6): 4.45
3 | below the threshold | 4.18 | below the threshold | 3.74 | below the threshold | below the threshold | 4.41 | 3.69 | below the threshold | below the threshold | below the threshold | below the threshold | below the threshold | below the threshold | below the threshold | below the threshold | below the threshold | below the threshold | below the threshold | below the threshold | IPLDGETEEL [MYOZ1, Q9NP98] | pKd (TJP2_1, Q9UDY2): below the threshold; pKd (APBA2_2, Q99767): below the threshold; pKd (FRMPD4, Q14CM0): 4.03; pKd (LIN7B, Q9HAP6): below the threshold
4 | below the threshold | below the threshold | below the threshold | below the threshold | below the threshold | 5.28 | 5.2 | 5.51 | below the threshold | below the threshold | below the threshold | below the threshold | below the threshold | 3.92 | below the threshold | below the threshold | below the threshold | 5.24 | 4.12 | below the threshold | PKRSFIESNV [TANC1, Q9C0D5] | pKd (TJP2_1, Q9UDY2): below the threshold; pKd (APBA2_2, Q99767): below the threshold; pKd (FRMPD4, Q14CM0): below the threshold; pKd (LIN7B, Q9HAP6): below the threshold
5 | 3.78 | below the threshold | 4.77 | below the threshold | 4.33 | below the threshold | 4.07 | below the threshold | 3.86 | below the threshold | 3.87 | below the threshold | below the threshold | below the threshold | below the threshold | below the threshold | below the threshold | 4.73 | 3.68 | below the threshold | QSLNRMEYIV [JAG1, P78504] | pKd (TJP2_1, Q9UDY2): below the threshold; pKd (APBA2_2, Q99767): below the threshold; pKd (FRMPD4, Q14CM0): below the threshold; pKd (LIN7B, Q9HAP6): below the threshold
6 | below the threshold | below the threshold | below the threshold | below the threshold | 3.58 | below the threshold | 4.1 | 3.86 | below the threshold | below the threshold | 3.7 | 3.48 | below the threshold | 4.36 | below the threshold | 3.5 | 3.49 | below the threshold | below the threshold | below the threshold | QMNQTLPVQV [EPHB3, P54753] | pKd (TJP2_1, Q9UDY2): below the threshold; pKd (APBA2_2, Q99767): below the threshold; pKd (FRMPD4, Q14CM0): below the threshold; pKd (LIN7B, Q9HAP6): below the threshold
